In patent publication US6331664A, “Acyl-ACP thioesterase nucleic acids from maize and methods of altering palmitic acid levels in transgenic plants therewith” (Dow AgroSciences LLC, priority 1998, dated 2001):
Like-named read-outs stand apart in the source and are kept apart here.

Tests used:
maize PTE = experiment: Thioesterase assay, substrate specificity of partially purified maize PTE expressed in E. coli; type: biochemical; conditions: for Percent Relative Activity: 10 μM radio-labeled acyl-ACP, 30° C., 5 min, 100% = 2.1 units/mg protein
Protocol: (§1) For enzymatic analysis of E coli expressed maize PTE, substrates were made as follows: ACP (Sigma Chemical Co.) was further purified by three cycles of precipitation at pH 4.0 using 10% (v/v) acetic acid followed by resolubilization in 50 mM Tris-HCl, pH 8.0. Carbon-14 or tritium-labeled fatty acids (lauric, 12:0; myristic, 14:0; palmitic, 16:0; stearic, 18:0; and oleic, 18:1) were obtained from Amersham (Arlington Heights, Ill.) or NEN Research Products. Acyl-ACPs were synthesized and purified according to Rock et al., ((1981) Methods in Enzymology, 72:397-403). Thioesterase assays were conducted according to Ohlrogge et al., ((1978) Arch. Biochem. Biophys. 189:382-391) with slight modifications. A standard reaction contained […] Tris-HCl, pH 8.0, 10 μM radio-labeled acyl-ACP (50-58 μCi/μmol), and enzyme in 50 μL. Reactions were conducted at 30° C. for 5 min and terminated with 200 μL of 10% (v/v) acetic acid. Free fatty acids were extracted twice with 1 mL hexane and the organic phases were combined for liquid scintillation counting. Protein concentrations were determined according to Bradford ((1976) Anal. Biochem. […]:248-254). Linear regressions were used for determination of kinetic constants from double reciprocal plots.

maize OTE [1] = experiment: Thioesterase assay, substrate specificity and Km of maize OTE purified from kernels; type: biochemical; conditions: for activity relative to that observed with 18:1-ACP: C14-labeled acyl-ACPs; for Km: double reciprocal plots
Protocol: as §1
The resolubilized PEG-precipitated material was applied to hydroxyapatite (HA-Ultrogel, Sigma Chemical Co.) which had been previously loaded into a 2.5×20 cm column equilibrated with buffer A. After loading, the column was washed with 300 mL of buffer A and maize OTE activity was eluted with buffer A having 1 M NaCl. Enzymatic activity was followed using C^14 labeled 18:1-ACP as substrate. Production of substrate and biochemical assays were performed as described herein. Fractions having thioesterase activity were pooled and desalted to 20 mM Tris, pH 7.0, 0.4 mM DTT (buffer B) on PD-10 columns (Pharmacia). The desalted fraction was then applied to a MonoQ HR 10/10 column (Pharmacia) and the enzyme was eluted using a linear gradient of 0-0.5 M NaCl in buffer B over 30 min. at a flow rate of 4 mL/min. Fractions were assayed for activity and active fractions were pooled and desalted on PD-10 columns (Pharmacia) equilibrated with buffer A.
The substrate specificity of purified maize OTE was analyzed using several C^14 -labeled acyl-ACPs as described herein. […] Low activities (less than 10% of that observed with 18:1-ACP) were observed when using 12:0-ACP, 14:0-ACP, 16:0-ACP, 18:0-ACP.

maize OTE [2] = experiment: Thioesterase assay, substrate specificity of maize OTE expressed in E. coli; type: biochemical; conditions: for Percent Relative Activity: radio-labeled acyl-ACP, 100% = 2.1 units/mg protein
12:0-ACP (Laurate) [3] = molecular target: 12:0-ACP (Laurate)
14:0-ACP (Myristate) [4] = molecular target: 14:0-ACP (Myristate)
16:0-ACP (Palmitate) [5] = molecular target: 16:0-ACP (Palmitate)
18:0-ACP (Stearate) [6] = molecular target: 18:0-ACP (Stearate)
18:1-ACP (Oleate) [7] = molecular target: 18:1-ACP (Oleate)
12:0-ACP (Laurate) [8] = molecular target: 12:0-ACP (Laurate); remark: listed apart in the source
14:0-ACP (Myristate) [9] = molecular target: 14:0-ACP (Myristate); remark: listed apart in the source
16:0-ACP (Palmitate) [10] = molecular target: 16:0-ACP (Palmitate); remark: listed apart in the source
18:0-ACP (Stearate) [11] = molecular target: 18:0-ACP (Stearate); remark: listed apart in the source
18:1-ACP (Oleate) [12] = molecular target: 18:1-ACP (Oleate); remark: listed apart in the source
12:0-ACP (Laurate) [13] = molecular target: 12:0-ACP (Laurate); remark: listed apart in the source
14:0-ACP (Myristate) [14] = molecular target: 14:0-ACP (Myristate); remark: listed apart in the source
16:0-ACP (Palmitate) [15] = molecular target: 16:0-ACP (Palmitate); remark: listed apart in the source
18:0-ACP (Stearate) [16] = molecular target: 18:0-ACP (Stearate); remark: listed apart in the source
18:1-ACP (Oleate) [17] = molecular target: 18:1-ACP (Oleate); remark: listed apart in the source

Q: Which results are given for “12:0-ACP: radio-labeled lauric acid thioester of acyl carrier protein, thioesterase substrate”?
A: Percent Relative Activity (maize PTE): 0.0%; activity relative to that observed with 18:1-ACP (maize OTE [1]): less than 10%; Percent Relative Activity (maize OTE [2]): 0.7%

Q: Which results are given for “16:0-ACP: radio-labeled palmitic acid thioester of acyl carrier protein, thioesterase substrate”?
A: Percent Relative Activity (maize PTE): 100.0%; activity relative to that observed with 18:1-ACP (maize OTE [1]): less than 10%; Km (maize OTE [1]): 25 µM; Percent Relative Activity (maize OTE [2]): 14.1%

Q: With “18:0-ACP: radio-labeled stearic acid thioester of acyl carrier protein, thioesterase substrate” as the molecule, how does the “Percent Relative Activity” value (maize PTE) read?
A: 61.2%

Q: And the “activity relative to that observed with 18:1-ACP” value (maize OTE [1])?
A: less than 10%

Q: And the “Percent Relative Activity” value (maize OTE [2])?
A: 25.2%

Q: With “18:1-ACP: radio-labeled oleic acid thioester of acyl carrier protein, thioesterase substrate” as the molecule, how does the “Percent Relative Activity” value (maize PTE) read?
A: 40.4%

Q: And the Km (maize OTE [1])?
A: 0.75 µM

Q: What about the “Percent Relative Activity” value (maize OTE [2]) of the same molecule?
A: 100.0%

Q: Which Percent Relative Activity (thioesterase assay, release of radio-labeled free fatty acid) (% relative activity) (12:0-ACP (Laurate) [3]) does the source give for “maize oleoyl-ACP thioesterase, mature protein expressed in E. coli (pDAB371) (enzyme)” here?
A: 0.7

Q: What about the Percent Relative Activity (thioesterase assay, release of radio-labeled free fatty acid) (% relative activity) (14:0-ACP (Myristate) [4]) of the same molecule?
A: 6.3

Q: And the Percent Relative Activity (thioesterase assay, release of radio-labeled free fatty acid) (% relative activity) (16:0-ACP (Palmitate) [5])?
A: 14.1

Q: And the Percent Relative Activity (thioesterase assay, release of radio-labeled free fatty acid) (% relative activity) (18:0-ACP (Stearate) [6])?
A: 25.2

Q: And the Percent Relative Activity (thioesterase assay, release of radio-labeled free fatty acid) (% relative activity) (18:1-ACP (Oleate) [7])?
A: 100

Q: “maize oleoyl-ACP thioesterase, native protein from maize kernels and embryos (enzyme)” was tested. Which substrate specificity (thioesterase assay with C14-labeled acyl-ACPs) (% of that observed with 18:1-ACP) (12:0-ACP (Laurate) [8]) did it give?
A: < 10

Q: And the substrate specificity (thioesterase assay with C14-labeled acyl-ACPs) (% of that observed with 18:1-ACP) (14:0-ACP (Myristate) [9])?
A: < 10

Q: And the Km (16:0-ACP (Palmitate) [10])?
A: 25 µM

Q: And the substrate specificity (thioesterase assay with C14-labeled acyl-ACPs) (% of that observed with 18:1-ACP) (16:0-ACP (Palmitate) [10])?
A: < 10

Q: And the substrate specificity (thioesterase assay with C14-labeled acyl-ACPs) (% of that observed with 18:1-ACP) (18:0-ACP (Stearate) [11])?
A: < 10

Q: And the Km (18:1-ACP (Oleate) [12])?
A: 0.75 µM

Q: Which Percent Relative Activity (thioesterase assay, release of radio-labeled free fatty acid) (% relative activity) (12:0-ACP (Laurate) [13]) does the source give for “maize palmitoyl-ACP thioesterase, mature protein expressed in E. coli (pDAB378) (enzyme)” here?
A: 0

Q: And the Percent Relative Activity (thioesterase assay, release of radio-labeled free fatty acid) (% relative activity) (14:0-ACP (Myristate) [14])?
A: 16

Q: What about the Percent Relative Activity (thioesterase assay, release of radio-labeled free fatty acid) (% relative activity) (16:0-ACP (Palmitate) [15]) of the same molecule?
A: 100

Q: And the Percent Relative Activity (thioesterase assay, release of radio-labeled free fatty acid) (% relative activity) (18:0-ACP (Stearate) [16])?
A: 61.2

Q: And the Percent Relative Activity (thioesterase assay, release of radio-labeled free fatty acid) (% relative activity) (18:1-ACP (Oleate) [17])?
A: 40.4

B1: maize OTE: maize oleoyl-ACP thioesterase, purified from kernels or expressed in E. coli from pDAB371 (protein)
chain: CARGAPQVSGIEAASPGHAAVTAALAKAEGGDARPSLAERLRLGNLLEDGLSYKESFIVRCYEVGINKTATVETIANLLQEVGCNHAQSVGFSTDGFATTTTMRKLGLIWVTNRMHIEIYKYPAWGDVVEIETWCQEDGRIGTRRDWILKDLANGEVIGRATSKWVMMNQNTRRLQRVSDDVRDEVFMHCPKAPRLAFPEENNGSLKKIPNLSDPAEYSRLGLVPRRADLDMNQHVNNVTYIGWVLESIPQDIIDTHELQTITLDYRRECQQDDIVDSLTCIEEGEEKSMNGSASAAAPHKEERQQFLHCLRFAANGHEINRGRTVWRKLAR
Q: How did the “specific activity equivalent to 100% relative activity” value (maize OTE [2]; unit = cleavage of 1 μmol/h free fatty acid at 30° C., 18:1-ACP) turn out when B1 was run?
A: 2.1 units/mg protein

B2: maize PTE: maize palmitoyl-ACP thioesterase, mature protein expressed in E. coli from pDAB378 (protein)
chain: LPDWSMLLAAITTIFLAAEKQWTMLDWKPRRPDMLTDTFGFGRIIHDGLMFRQNFSIRSYEIGADRTASIETLMNHLQETALNHVKTAGLLGDGFGSTPEMSKRNLFWVVSQMQAIIERYPCWGDTVEVDTWVSANGKNGMRRDWHIRDPITGLTILKATSKWVMMNKLTRKLARIPDEVRTEIEPYFFEHSAIVDEDNRKLPKLPEGQSTSVAKYVRTGLTPRWADLDINQHVNNVKYIAWILESAPISILENHELASIVLDYKRECGRDSVLQSHTSVHTDCNSESGETTLHCEHVLSLESGPTMVKARTMWRPKGTKAQETVVPSSI
Q: For B2, which “specific activity equivalent to 100% relative activity” value (maize PTE; unit = cleavage of 1 μmol/h free fatty acid at 30° C., 16:0-ACP) is on record?
A: 2.1 units/mg protein
